Source: publication PMC12394075, “Domain coupling in activation of a family C GPCR” (Nature Chemical Biology, 2024)

Target: the molecule itself
Test: SEC; Superose 6 10/300 increase GL equilibrated in detergent-free buffer, after elution in 0.005% MNG/GDN/CHS

B1: full-length mGluR2 (FLAG-tagged, purified in detergent micelles) (receptor, rat, UniProt P31421 19-872, looked up)
chain: EGPAKKVLTLEGDLVLGGLFPVHQKGGPAEECGPVNEHRGIQRLEAMLFALDRINRDPHLLPGVRLGAHILDSCSKDTHALEQALDFVRASLSRGADGSRHICPDGSYATHSDAPTAVTGVIGGSYSDVSIQVANLLRLFQIPQISYASTSAKLSDKSRYDYFARTVPPDFFQAKAMAEILRFFNWTYVSTVASEGDYGETGIEAFELEARARNICVATSEKVGRAMSRAAFEGVVRALLQKPSARVAVLFTRSEDARELLAATQRLNASFTWVASDGWGALESVVAGSERAAEGAITIELASYPISDFASYFQSLDPWNNSRNPWFREFWEERFHCSFRQRDCAAHSLRAVPFEQESKIMFVVNAVYAMAHALHNMHRALCPNTTHLCDAMRPVNGRRLYKDFVLNVKFDAPFRPADTDDEVRFDRFGDGIGRYNIFTYLRAGSGRYRYQKVGYWAEGLTLDTSFIPWASPSAGPLPASRCSEPCLQNEVKSVQPGEVCCWLCIPCQPYEYRLDEFTCADCGLGYWPNASLTGCFELPQEYIRWGDAWAVGPVTIACLGALATLFVLGVFVRHNATPVVKASGRELCYILLGGVFLCYCMTFVFIAKPSTAVCTLRRLGLGTAFSVCYSALLTKTNRIARIFGGAREGAQRPRFISPASQVAICLALISGQLLIVAAWLVVEAPGTGKETAPERREVVTLRCNHRDASMLGSLAYNVLLIALCTLYAFKTRKCPENFNEAKFIGFTMYTTCIIWLAFLPIFYVTSSDYRVQTTTMCVSVSLSGSVVLGCLFAPKLHIILFQPQKNVVSHRAPTSRFGSAAPRASANLGQGSGSQFVPTVCNGREVVDSTTSSL
notes: also called full-length mGluR2 construct; full-length receptor
  binding result: binds
